The values below come from publication PMC6863705 (Protein Science : A Publication of the Protein Society, 2019).

As usually defined, the Kd is the free concentration of one partner at which half of the binding sites on the other are occupied at equilibrium, for simple one-to-one binding. Read a high Kd as lower affinity.

The target in one assay is T1, Ssk1-R2-R524A (S. cerevisiae, UniProt Q07084 495-712, R524A).
T1 sequence: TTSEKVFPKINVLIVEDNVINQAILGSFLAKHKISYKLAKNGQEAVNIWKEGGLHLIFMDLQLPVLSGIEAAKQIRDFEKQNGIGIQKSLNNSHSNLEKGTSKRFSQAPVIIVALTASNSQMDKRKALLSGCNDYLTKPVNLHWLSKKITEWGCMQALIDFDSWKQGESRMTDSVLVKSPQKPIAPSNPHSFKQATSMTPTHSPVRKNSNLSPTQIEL
Nature of the assay: other fluorescence titration.

Assay [1] addresses T2, Receiver domain of Ssk1 (Ssk1-R2), wild type (S. cerevisiae, UniProt Q07084 495-712).
T2 sequence: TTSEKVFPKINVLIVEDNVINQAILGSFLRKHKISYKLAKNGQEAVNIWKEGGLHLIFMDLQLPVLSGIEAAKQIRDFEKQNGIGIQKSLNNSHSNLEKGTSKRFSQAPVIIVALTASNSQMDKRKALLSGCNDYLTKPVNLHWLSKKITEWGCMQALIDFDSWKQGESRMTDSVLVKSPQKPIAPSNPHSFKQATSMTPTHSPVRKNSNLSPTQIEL
In words: other fluorescence titration.

A further assay deals with T3, Ssk1-R2-W638A (S. cerevisiae, UniProt Q07084 495-712, W638A).
T3 sequence: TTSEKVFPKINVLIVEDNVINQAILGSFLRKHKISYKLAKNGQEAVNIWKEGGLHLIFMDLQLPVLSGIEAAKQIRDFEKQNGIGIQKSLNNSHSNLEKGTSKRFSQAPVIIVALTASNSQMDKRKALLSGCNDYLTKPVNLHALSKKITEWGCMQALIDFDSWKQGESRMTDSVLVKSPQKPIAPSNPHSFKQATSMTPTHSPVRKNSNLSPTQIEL
Nature of the assay: other fluorescence titration.

Another assay concerns the target T4, Ssk1-R2-K525A (S. cerevisiae, UniProt Q07084 495-712, K525A).
T4 sequence: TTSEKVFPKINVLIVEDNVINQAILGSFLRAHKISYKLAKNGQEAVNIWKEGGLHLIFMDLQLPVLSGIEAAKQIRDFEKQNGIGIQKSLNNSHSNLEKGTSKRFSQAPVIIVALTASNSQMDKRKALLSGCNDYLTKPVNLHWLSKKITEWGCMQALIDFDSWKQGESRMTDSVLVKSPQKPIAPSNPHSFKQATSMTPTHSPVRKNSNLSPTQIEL
Nature of the assay: other fluorescence titration.

Assay [2] deals with T5, Selenomethionine derivative of Ssk1-R2-W638A (S. cerevisiae, UniProt Q07084 495-712, W638A, selenomethionine incorporated).
T5 sequence: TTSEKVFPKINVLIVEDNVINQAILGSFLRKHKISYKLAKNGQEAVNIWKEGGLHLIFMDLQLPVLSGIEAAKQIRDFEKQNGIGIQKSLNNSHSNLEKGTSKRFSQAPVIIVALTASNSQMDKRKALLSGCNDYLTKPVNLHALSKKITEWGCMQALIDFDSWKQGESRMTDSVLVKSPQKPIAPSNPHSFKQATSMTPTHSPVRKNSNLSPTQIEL
In words: crystal structure.

B1: Fluoresceinated Ypd1-T12C variant (Ypd1-T12C~F) (natural protein, S. cerevisiae, UniProt Q07688 1-167, looked up)
chain: MSTIPSEIINWCILNEIISMDDDDSDFSKGLIIQFIDQAQTTFAQMQRQLDGEKNLTELDNLGHFLKGSSAALGLQRIAWVCERIQNLGRKMEHFFPNKTELVNTLSDKSIINGINIDEDDEEIKIQVDDKDENSIYLILIAKALNQSRLEFKLARIELSKYYNTNL
modifications: 5-iodoacetamidofluorescein (5-IAF) on the cysteine at 12 (T12C)
In the case of B1, the Kd came out at 918 nM in the assay with Ssk1-R2-R524A, 23.7 nM in assay [1], 219 nM with Ssk1-R2-W638A and 640 nM with Ssk1-R2-K525A.

B2: Ypd1 (histidine phosphotransfer protein) from S. cerevisiae (natural protein, UniProt Q07688 1-167, looked up)
chain: MSTIPSEIINWTILNEIISMDDDDSDFSKGLIIQFIDQAQTTFAQMQRQLDGEKNLTELDNLGHFLKGSSAALGLQRIAWVCERIQNLGRKMEHFFPNKTELVNTLSDKSIINGINIDEDDEEIKIQVDDKDENSIYLILIAKALNQSRLEFKLARIELSKYYNTNL
On to B2, for which the binding result in assay [2] is given as “binds”.
